The labels stand for the following.
B1: Azoarcus group I ribozyme (parent)
chain: GUGCCUUGCGCCGGGAAACCACGCAAGGGAUGGUGUCAAAUUCGGCGAAACCUAAGCGCCCGCCCGGGCGUAUGGCAACGCCGAGCCAAGCUUCGGCGCCUGCGCCGAUGAAGGUGUAGAGACUAGACGGCACCCACCUAAGGCAAACGCUAUGGUGAAGGCAUAGUCCAGGGAGUGGCGAAAGUCACACAAACCGG

The variants in the data set derive from B1. In words: reverse-splicing fitness (ratio to wild type); higher = more active; in vitro selection; Mg2+ level not given. Put shortly:
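An in vitro group I ribozyme library with randomized positions was T7-transcribed and gel-purified. In triplicate, 10 pmol RNA in EPPS pH 7.5 was reacted with 50 pmoles of a 30-nt RNA substrate for 1 h at 37 °C across several added MgCl2 levels (1–48 mM), then stopped with EDTA. Products were reverse transcribed from a substrate-complementary primer, PCR-amplified and sequenced (HiSeq 4000). Fitness is a variant's read proportion after selection over that before, normalised to wild type.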
In the case of C82G A111G A120G A145C C150U C169A U176A, the reverse-splicing fitness was found to be 0.0167.
With C82G A111G A120G A145C C150U C169A U176G the figure was 0.00578.
On to C82U A145G C150U C169U U176C, for which the reverse-splicing fitness turned out to be 0.0134.
With C82A A111U A145G C169U U176C the figure was 0.0157; with C82U A111C A120G A145U C150A C169A U176G, 0.00481.
The figure for C82U A111G A120U A145G C150U C169A U176C is 0.00369; for A111U A120G A145G C150U C169G U176G it is 0.00498; for C82A A111U A145G C150U C169G U176C it is 0.0194.
The figure for A111C A120G A145U C150U C169A U176A is 0.0161; for A111C A120G C150G C169A it is 0.0136; for C82A A120G A145G C150A U176A it is 0.0108.
On to C82U A111U A120U A145G C150A U176A, for which the reverse-splicing fitness is 0.00691.
In the case of C82U A111U A120U A145G C150A U176G, the reverse-splicing fitness came out at 0.00271.
With C82A A111G A145G C150G C169A the figure was 0.0093; with C82A A111G A120U A145C C150A C169A U176A, 0.0022.
For the variant C82A A111G A120C A145C C150U C169G U176G, the reverse-splicing fitness was found to be 0.00681.
With C82A A111U C150U C169G U176C the figure was 0.0182; with A111G A120C A145C C150U C169U U176C, 0.0214.
Take C82G A111U A120G A145G C150U C169G: the reverse-splicing fitness was found to be 0.0128.
With A111G A120G A145C C150G C169G U176C the figure was 0.00653.
The figure for A145C C150A C169G is 0.0208; for C82G A120C A145U C150A C169A U176A it is 0.0178.
With A111C A145C C169U U176C the figure was 0.0254; with C82U A111G A120G A145C C150G C169A U176C, 0.00579; with C82U A120C C150U C169A U176A, 0.0158.
With C82U A111G A120G A145C C169U U176C, the reverse-splicing fitness was found to be 0.0105.
The figure for C82G A111C A120C C169A U176C is 0.0194.
With C82A A111G A120C A145G C150A C169U U176C the figure was 0.0154; with C82A A120G A145C C150A C169A, 0.00694; with A120U A145C C150A U176A, 0.0864.
With C82A A111C A120C A145G C169A U176A, the reverse-splicing fitness worked out at 0.0249.
Take A111G A120G A145U C169A: the reverse-splicing fitness is 0.174.
The figure for A120C A145U C169G is 0.0257; for C82U A120C A145G C169A U176C it is 0.0219.
The figure for A111C A145G C150A U176C is 0.168; for C82U A111U A120C A145C C150G C169U U176G it is 0.00477.
On to C82G A111C A120G A145C C150A C169A U176C, for which the reverse-splicing fitness came out at 0.00779.
On to C82G A111G A145U C150U C169U U176C, for which the reverse-splicing fitness stood at 0.0137.
As for C82U A111U A120C A145G C150G C169G U176G, the reverse-splicing fitness was found to be 0.00574.
With A111C A120C A145U C150A C169G U176A the figure was 0.0127; with A111C A120C A145U C150A C169G U176C, 0.0146; with C82G A111G A120U C150G C169U U176C, 0.00723.
The figure for C82G A120U A145C C150G is 0.0203; for C82U C150A C169G U176G it is 0.00558; for C82G A111C A120G A145C U176C it is 0.0166.
Consider C82G A120C A145U C150U C169U U176A, for which the reverse-splicing fitness was 0.0152.
With A111G A120G A145C U176C, the reverse-splicing fitness worked out at 0.104.
The figure for C82U A111U A145U C150U C169G U176C is 0.0127; for C82U A111U A120C A145U C150U U176G it is 0.0051; for A111G A145C C169A U176A it is 0.0126.
The figure for C82U A111G A120C A145G C150U U176A is 0.0138.
Take C82U A120G A145U C150A: the reverse-splicing fitness was 0.00772.
As for A120U A145G C169G, the reverse-splicing fitness turned out to be 0.255.
The figure for C82A A111G C150U is 0.205.
With C82U A111G A145C C150U C169U U176C the figure was 0.00834; with C82U A111U A120C A145G C150U U176G, 0.00597; with C82A A111G A120U C150U C169A U176C, 0.00346.
In the case of A111C A120U A145G C150U C169G, the reverse-splicing fitness was 0.0471.
As for A111U A120C A145U C150G C169U U176G, the reverse-splicing fitness is 0.00475.
For the variant C82G A111C A120G A145C C150U C169U U176C, the reverse-splicing fitness came out at 0.0119.
In the case of C82G A145G C150A C169A U176A, the reverse-splicing fitness amounted to 0.0204.
As for A111G A145G C150A U176C, the reverse-splicing fitness is 0.32.
With C82U A111G A145C C169A U176C the figure was 0.00406; with C82A A145G C150G C169G, 0.00856; with C82A A111C A120G C150U U176A, 0.0116.
For C82A A111C A120U A145G C150U C169A U176A, the reverse-splicing fitness stood at 0.00915.
For the variant C82A A120G C150A U176G, the reverse-splicing fitness came to 0.00837.
C82G A111G A120U A145U U176C: the reverse-splicing fitness was found to be 0.0296.
With C82U A111U A120U C150U C169G U176C the figure was 0.00317.
With A120G A145G C150A C169A the figure was 0.0788; with C82A A111U A120U A145C C150G C169G, 0.0039; with C82A A111U A120U A145C C150G C169A, 0.00347.
As to C82U A111U A120C A145U C150U C169U, the reverse-splicing fitness was 0.0101.
The figure for A111G A120U A145C C150A C169A U176G is 0.00177.
In the case of A111C A120C A145C C150U C169G U176C, the reverse-splicing fitness was 0.0118.
The figure for A120U A145G C150A C169U U176C is 0.032; for C82U A111G A120G A145U C150G C169G it is 0.00704; for C82G A111U A120C A145C C169U U176C it is 0.0128.
The figure for C82A A120U A145C C150U C169U U176C is 0.00257.
With A111U A120G A145C C150A U176G the figure was 0.00407; with C82A A111C A120C A145C C150A, 0.0107.
On to A111C A120C A145U C169U U176C, for which the reverse-splicing fitness is 0.0445.
For the variant C82G A120C A145U C150G C169A U176A, the reverse-splicing fitness was determined as 0.0119.

These data come from the RNAGym collection of RNA variant scans (doi:10.1093/molbev/msab373).
